Broadly, the Kd is the free concentration of one partner at which half of the binding sites on the other are occupied at equilibrium, for simple one-to-one binding. Low values mean higher affinity, high ones lower affinity.

Test [1] has as its target Human SIRPa-His fusion protein (extracellular domain of human SIRPa fused to His-tag) (human) (UniProt P78324). The test is described as follows: SPR, Biacore 3000 at 25 C, antibody captured by goat anti-human antibody, SIRPa-His as analyte.
Test [2] has the same target. Put plainly: Biacore (surface plasmon resonance), antibody captured, monomeric human SIRPa-His as analyte. A general note: Surface plasmon resonance follows binding to a sensor surface in real time, without labels.

B1: Humanized 1H9 (antibody, human IgG1, kappa, N297A, V domains shown)
VH: QVQLVQSGAEVKKPGASVKVSCKASGYTFTSYWITWVKQAPGQGLEWIGDIYPGSGSTNHIEKFKSKATLTVDTSISTAYMELSRLRSDDTAVYYCATGYGSSYGYFDYWGQGTLVTVSS
VL: DIQMTQSPSSLSASVGDRVTITCRASENIYSYLAWYQQKPGKAPKLLIYTAKTLAEGVPSRFSGSGSGTDFTLTISSLQPEDFATYYCQHQYGPPFTFGQGTKLEIKR
For the molecule B1, the Kd in test [1] is 1.15 nM.

B2: 3C2 (parental mouse anti-human SIRPa monoclonal antibody) (antibody, V domains shown)
VH: QVQLQQPGAELVRPGSSVKLSCKASGYTFTSYWMHWVKQRPIQGLEWIGNIDPSDSDTHYNQKFKDKATLTVDKSSSTAYMQLSSLTSEDSAVYYCARGYSKYYAMDYWGQGTSVTVSS
VL: DVLMTQTPLSLSVSLGDQASISCRSSQSIVHSYGNTYLEWYLQKPGQSPKLLIYKVSNRFSGVPDRFSGSGSGTDFTLKISRVEAEDLGVYYCFQGSHVPYTFGGGTKLEIK
In test [2], B2 had a Kd of 5.58 nM.

B3: Humanized 3C2 (antibody, human IgG1, kappa, N297A, V domains shown)
VH: QVQLVQSGAEVKKPGASVKVSCKASGYTFTSYWMHWVRQAPGQGLEWMGNIDPSDSDTHYNQKFKDRVTMTRDTSTSTVYMELSSLRSEDTAVYYCARGYSKYYAMDYWGQGTLVTVSS
VL: DIVMTQTPLSLSVTPGQPASISCRSSQSIVHSYGNTYLEWYLQKPGQSPQLLIYKVSNRFSGVPDRFSGSGSGTDFTLKISRVEAEDVGVYYCFQGSHVPYTFGQGTKLEIKR
B3: the Kd in test [1] was determined as 5.53 nM.

B4: 1H9 (parental mouse anti-human SIRPa monoclonal antibody) (antibody, V domains shown)
VH: QVQLQQPGAERVKPGASVKMSCKASGYTFTSYWITWVKQRPGQGLEWIGDIYPGSGSTNHIEKFKSKATLTVDTSSNTAYMQLSRLTSEDSAVYYCATGYGSSYGYFDYWGQGTTLTVSS
VL: DIQMTQSPASLSASVGETVTITCRASENIYSYLAWYQQKQGKSPQLLVYTAKTLAEGVPSRFSGSGSGTQFSLKINSLQPEDFGNYYCQHQYGPPFTFGSGTRLVIK
The molecule B4 came in with a Kd in test [2] of 2.06 nM.

The values above are taken from patent US20210171654A1.
